“And” between values parts separate entries of the source, which are not always exact repeats. Identical values can stand only once.
Settings: Escherichia coli (strain K12); pH 7.8; 25 °C; Urea; CD; Potassium phosphate 10 mM; transition: 3; whole UniProt chain shown

B1: Tryptophan synthase alpha chain wild type, P0A877 (protein)
chain: MERYESLFAQLKERKEGAFVPFVTLGDPGIEQSLKIIDTLIEAGADALELGIPFSDPLADGPTIQNATLRAFAAGVTPAQCFEMLALIRQKHPTIPIGLLMYANLVFNKGIDEFYAQCEKVGVDSVLVADVPVEESAPFRQAALRHNVAPIFICPPNADDDLLRQIASYGRGYTYLLSRAGVTGAENRAALPLNHLVAKLKEYNAAPPLQGFGISAPDQVKAAIDAGAAGAISGSAIVKIIEQHINEPEKMLAALKVFVQPMKAATRS
denaturant m value: 2.29 kcal/mol/M and 1.2 kcal/mol/M
unfolding free energy: 6.13 kcal/mol and 4.72 kcal/mol

— FireProtDB (doi:10.1016/j.jmb.2005.06.006)
